Test results taken from paper PMC12507517, “Teamwork of clustered low-affinity κB sites and accessory factors regulates transcriptional strength of NF-κB RelA dimers”.

How the values were obtained:
[1] = target: T1, p50:RelA heterodimer, RelA chain;p50:RelA heterodimer, p50 chain (;, UniProt Q04206;P19838 1-551;1-435, |); test: EMSA; EMSA: 10 mM Tris-HCl pH 7.5, 50 mM NaCl, 10% glycerol, 1% NP-40, 1 mM EDTA, 0.1 mg/mL salmon sperm DNA, room temp; BLI: 25 mM Tris-HCl pH 7.5, 150 mM NaCl, 0.02% Tween 20, 0.1 mg/mL salmon sperm DNA, 1 mM DTT; settings: protein: recombinant;recombinant; tags: His;His; copies: 1;1; label: 32P
[2] = target: T2, Nfatc1 (affinity-purified) (UniProt O95644 1-698); test: as above; settings: protein: recombinant; label: 32P
T2 sequence: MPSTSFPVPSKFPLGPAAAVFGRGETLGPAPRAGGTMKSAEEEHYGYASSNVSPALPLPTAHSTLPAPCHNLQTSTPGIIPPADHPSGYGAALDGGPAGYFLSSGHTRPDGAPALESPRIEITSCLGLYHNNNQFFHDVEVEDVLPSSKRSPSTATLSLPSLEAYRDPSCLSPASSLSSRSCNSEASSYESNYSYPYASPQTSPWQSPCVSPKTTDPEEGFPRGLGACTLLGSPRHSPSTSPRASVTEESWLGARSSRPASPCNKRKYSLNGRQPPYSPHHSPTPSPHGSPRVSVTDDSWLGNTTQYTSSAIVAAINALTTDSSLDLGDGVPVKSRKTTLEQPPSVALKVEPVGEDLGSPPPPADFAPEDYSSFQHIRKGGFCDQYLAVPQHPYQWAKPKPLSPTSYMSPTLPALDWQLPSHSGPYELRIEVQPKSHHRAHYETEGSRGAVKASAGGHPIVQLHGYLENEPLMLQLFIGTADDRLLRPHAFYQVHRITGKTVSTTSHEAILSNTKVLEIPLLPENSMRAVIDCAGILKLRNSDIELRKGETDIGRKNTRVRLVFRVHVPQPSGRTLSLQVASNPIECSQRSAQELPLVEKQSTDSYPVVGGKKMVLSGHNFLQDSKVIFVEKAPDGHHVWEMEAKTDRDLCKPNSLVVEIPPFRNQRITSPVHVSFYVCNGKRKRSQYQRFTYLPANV

RelA homodimer [3] = target: T3, RelA homodimer (UniProt Q04206 1-551); test: as above; settings: protein: recombinant; tags: His; chain copies: 2; label: 32P
[4] = target: T4, Tead3 (affinity-purified) (UniProt Q99594 1-435); test: as above; settings: protein: recombinant; label: 32P
[5] = target: T1, p50:RelA heterodimer, RelA …; test: EMSA; binding retained; EMSA: 10 mM Tris-HCl pH 7.5, 50 mM NaCl, 10% glycerol, 1% NP-40, 1 mM EDTA, 0.1 mg/mL salmon sperm DNA, room temp; BLI: 25 mM Tris-HCl pH 7.5, 150 mM NaCl, 0.02% Tween 20, 0.1 mg/mL salmon sperm DNA, 1 mM DTT; settings: protein: recombinant;recombinant; tags: His;His; copies: 1;1; label: 32P
RelA homodimer [6] = target: T3, RelA homodimer; test: as above; settings: protein: recombinant; tags: His; chain copies: 2; label: 32P
[7] = target: T4, Tead3 (affinity-purified); test: EMSA; weak site only; EMSA: 10 mM Tris-HCl pH 7.5, 50 mM NaCl, 10% glycerol, 1% NP-40, 1 mM EDTA, 0.1 mg/mL salmon sperm DNA, room temp; BLI: 25 mM Tris-HCl pH 7.5, 150 mM NaCl, 0.02% Tween 20, 0.1 mg/mL salmon sperm DNA, 1 mM DTT; settings: protein: recombinant; label: 32P
[8] = target: T1, p50:RelA heterodimer, RelA …; test: EMSA; no discernible effect of mutation; EMSA: 10 mM Tris-HCl pH 7.5, 50 mM NaCl, 10% glycerol, 1% NP-40, 1 mM EDTA, 0.1 mg/mL salmon sperm DNA, room temp; BLI: 25 mM Tris-HCl pH 7.5, 150 mM NaCl, 0.02% Tween 20, 0.1 mg/mL salmon sperm DNA, 1 mM DTT; settings: protein: recombinant;recombinant; tags: His;His; copies: 1;1; label: 32P
RelA homodimer [9] = target: T3, RelA homodimer; test: as above; settings: protein: recombinant; tags: His; chain copies: 2; label: 32P
[10] = target: T4, Tead3 (affinity-purified); test: EMSA; strong site only; EMSA: 10 mM Tris-HCl pH 7.5, 50 mM NaCl, 10% glycerol, 1% NP-40, 1 mM EDTA, 0.1 mg/mL salmon sperm DNA, room temp; BLI: 25 mM Tris-HCl pH 7.5, 150 mM NaCl, 0.02% Tween 20, 0.1 mg/mL salmon sperm DNA, 1 mM DTT; settings: protein: recombinant; label: 32P
Nfat5 RHR mutant = target: T5, Nfat5 RHR mutant (UniProt O94916 264-544, R295S;Y296S); test: EMSA; no observable binding; EMSA: 10 mM Tris-HCl pH 7.5, 50 mM NaCl, 10% glycerol, 1% NP-40, 1 mM EDTA, 0.1 mg/mL salmon sperm DNA, room temp; BLI: 25 mM Tris-HCl pH 7.5, 150 mM NaCl, 0.02% Tween 20, 0.1 mg/mL salmon sperm DNA, 1 mM DTT; settings: protein: recombinant; chain copies: 2; label: 32P
T5 sequence: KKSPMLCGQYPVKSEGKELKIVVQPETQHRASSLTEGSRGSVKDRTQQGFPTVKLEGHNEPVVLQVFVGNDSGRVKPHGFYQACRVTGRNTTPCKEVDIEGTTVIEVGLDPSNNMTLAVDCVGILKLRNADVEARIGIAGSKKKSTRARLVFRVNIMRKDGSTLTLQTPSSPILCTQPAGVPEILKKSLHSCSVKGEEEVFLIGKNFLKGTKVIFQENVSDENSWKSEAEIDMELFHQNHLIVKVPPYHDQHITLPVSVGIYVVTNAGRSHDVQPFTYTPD

Nfat5 RHR WT = target: T6, Nfat5 RHR WT (UniProt O94916 264-544); test: as above; settings: protein: recombinant; chain copies: 2; label: 32P
T6 sequence: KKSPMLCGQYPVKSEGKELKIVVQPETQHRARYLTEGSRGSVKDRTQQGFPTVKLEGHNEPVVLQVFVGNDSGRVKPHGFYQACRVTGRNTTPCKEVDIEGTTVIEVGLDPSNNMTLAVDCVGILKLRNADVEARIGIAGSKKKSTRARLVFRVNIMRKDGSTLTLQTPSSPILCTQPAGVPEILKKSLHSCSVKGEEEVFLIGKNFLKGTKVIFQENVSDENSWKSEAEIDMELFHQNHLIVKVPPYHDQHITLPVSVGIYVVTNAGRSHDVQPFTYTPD

T4 sequence (Q99594 whole entry): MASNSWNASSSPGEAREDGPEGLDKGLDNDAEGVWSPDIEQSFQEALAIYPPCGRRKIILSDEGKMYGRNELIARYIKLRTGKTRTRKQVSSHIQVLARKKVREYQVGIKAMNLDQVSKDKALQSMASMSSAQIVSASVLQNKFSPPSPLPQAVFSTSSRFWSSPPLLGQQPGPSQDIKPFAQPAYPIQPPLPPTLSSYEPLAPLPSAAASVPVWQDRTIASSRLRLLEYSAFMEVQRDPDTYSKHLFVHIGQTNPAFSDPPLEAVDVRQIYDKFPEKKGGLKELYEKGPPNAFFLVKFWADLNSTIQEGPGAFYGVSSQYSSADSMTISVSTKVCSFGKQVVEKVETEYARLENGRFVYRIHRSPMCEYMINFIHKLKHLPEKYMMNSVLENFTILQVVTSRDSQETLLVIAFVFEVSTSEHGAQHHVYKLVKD
T1 sequence (Q04206 whole entry, chain 1 of 2): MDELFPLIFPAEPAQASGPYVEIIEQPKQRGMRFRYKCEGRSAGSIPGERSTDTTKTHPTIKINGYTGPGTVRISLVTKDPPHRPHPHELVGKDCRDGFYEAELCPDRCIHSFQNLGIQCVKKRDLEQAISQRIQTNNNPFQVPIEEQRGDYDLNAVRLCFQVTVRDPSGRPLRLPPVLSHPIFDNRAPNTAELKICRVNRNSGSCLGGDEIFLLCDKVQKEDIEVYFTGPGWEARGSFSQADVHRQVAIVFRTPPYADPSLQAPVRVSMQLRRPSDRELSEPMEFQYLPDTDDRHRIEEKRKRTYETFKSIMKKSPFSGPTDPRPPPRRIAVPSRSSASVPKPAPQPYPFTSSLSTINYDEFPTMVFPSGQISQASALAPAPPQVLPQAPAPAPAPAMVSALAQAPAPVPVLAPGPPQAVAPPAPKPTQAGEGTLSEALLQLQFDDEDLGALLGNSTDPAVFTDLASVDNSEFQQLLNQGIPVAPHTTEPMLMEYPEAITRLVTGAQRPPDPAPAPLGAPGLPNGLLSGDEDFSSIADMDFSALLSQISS
T1 sequence (P19838 1-435, chain 2 of 2): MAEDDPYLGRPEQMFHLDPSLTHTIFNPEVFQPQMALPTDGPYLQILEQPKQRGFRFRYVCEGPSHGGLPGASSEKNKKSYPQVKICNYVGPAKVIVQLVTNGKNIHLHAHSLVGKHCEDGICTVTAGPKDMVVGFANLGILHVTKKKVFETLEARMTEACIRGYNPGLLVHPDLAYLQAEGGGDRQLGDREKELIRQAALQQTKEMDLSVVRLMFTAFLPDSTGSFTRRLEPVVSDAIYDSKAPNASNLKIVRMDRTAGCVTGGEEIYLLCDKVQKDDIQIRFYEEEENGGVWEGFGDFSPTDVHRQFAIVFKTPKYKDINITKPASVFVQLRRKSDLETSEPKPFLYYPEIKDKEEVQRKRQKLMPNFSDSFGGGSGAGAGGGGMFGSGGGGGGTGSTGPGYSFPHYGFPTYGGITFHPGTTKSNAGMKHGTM
T3 sequence (Q04206 whole entry): as the sequence (Q04206 whole entry, chain 1 of 2) above

B1: 2DM Cxcl2 probe (both sites mutated) (dsDNA)
DNA 1: TCGACATGAGGGGACCCTGAGCTCAGCTAATTTGACTGGTCCCCGGGCTTTTGGAG
DNA 2: CTCCAAAAGCCCGGGGACCAGTCAAATTAGCTGAGCTCAGGGTCCCCTCATGTCGA
B1: no binding [1]; no binding [2]; no binding (RelA homodimer [3]). B1: no binding [4].

B2: 2ΔS Cxcl2 probe (strong site mutated) (dsDNA)
DNA 1: TCGACATGAGGGGACCCTGAGCTCAGCTAATTTGACTGGTCCCCGGGCTTTTCCAG
DNA 2: CTGGAAAAGCCCGGGGACCAGTCAAATTAGCTGAGCTCAGGGTCCCCTCATGTCGA
B2: binds [2]; binds [5]; binds (RelA homodimer [6]). B2: no binding [7].

B3: 2WT Cxcl2 probe (dsDNA)
DNA 1: TCGACATGAGGGGACCCTGAGCTCAGGGAATTTCCCTGGTCCCCGGGCTTTTCCAG
DNA 2: CTGGAAAAGCCCGGGGACCAGGGAAATTCCCTGAGCTCAGGGTCCCCTCATGTCGA
B3: binds [2]; binds [4].

B4: 2ΔW Cxcl2 probe (weak site mutated) (dsDNA)
DNA 1: TCGACATGAGGGGACCCTGAGCTCAGGGAATTTCCCTGGTCCCCGGGCTTTTGGAG
DNA 2: CTCCAAAAGCCCGGGGACCAGGGAAATTCCCTGAGCTCAGGGTCCCCTCATGTCGA
B4: binds [8]; binds (RelA homodimer [9]); binds [2]. B4: binds [10].

B5: Nfat EMSA probe (dsDNA)
DNA 1: TCGACATGAGGGGACCCTGAGCTCAGGGAATTTCCCTGGTCCCCGGGCTTTTCCAG
DNA 2: CTGGAAAAGCCCGGGGACCAGGGAAATTCCCTGAGCTCAGGGTCCCCTCATGTCGA
B5: no binding (Nfat5 RHR mutant); no binding (Nfat5 RHR WT).
